Results as given in publication PMC9352680, “A comprehensive thermodynamic model for RNA binding by the Saccharomyces cerevisiae Pumilio protein PUF4”.
Positions count from the first letter of the chain named. Numbers in names are those of the source.

T1: PUF4 RNA-binding domain (Saccharomyces cerevisiae, UniProt P25339 537-888)
T1 sequence: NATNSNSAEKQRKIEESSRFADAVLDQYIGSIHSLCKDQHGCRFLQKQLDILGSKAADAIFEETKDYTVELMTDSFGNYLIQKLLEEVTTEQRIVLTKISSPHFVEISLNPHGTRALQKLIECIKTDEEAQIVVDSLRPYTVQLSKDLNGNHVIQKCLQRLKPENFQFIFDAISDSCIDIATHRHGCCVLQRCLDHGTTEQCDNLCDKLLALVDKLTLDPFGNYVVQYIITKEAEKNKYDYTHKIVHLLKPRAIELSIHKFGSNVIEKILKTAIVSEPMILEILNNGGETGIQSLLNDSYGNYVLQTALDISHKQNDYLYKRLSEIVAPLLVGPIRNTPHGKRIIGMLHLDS

B1: Ic_S2_P5E.1_K5.1_C5.1_H5.1_A5.1_[T5G]_[T6C]_[A7T]_F5.1_[T8C]_[A10C]_T5.1 (ssRNA)
RNA: UUUGAUUAAUAUGAUAUCGUUCUUUCUUGUAGCUCUCUUCUUUCUCGAUAUCAUAUUAAUCUUU
B2: Ic_S2_P5E.1_K5.1_C5.1_H5.1_A5.1_[T5C]_[T6C]_[A7T]_F5.1_[T8C]_[T9C]_T5.1 (ssRNA)
RNA: B1 RNA with G32C, U36C, C37A
B3: Ic_S2_P5E.1_K5.1_C5.1_H5.1_A5.1_[T6A]_[A7G]_F5.1_[T9C]_[A10C]_T5.1 (ssRNA)
RNA: B1 RNA with G32U, C33A, U34G, C35U, U36C
B4: Ib_S1_P4E.1_K4.1_C4.1_H4.1_[G2T]_A4.1_F4.1_[T8A]_T4.1 (ssRNA)
RNA: UCUCUUUUUAUAUAAUCUCUU
B5: Ic_S2_P5E.1_K5.1_C5.1_H5.1_A5.1_[T5G]_[T6C]_F5.1_[T8C]_[A10G]_T5.1 (ssRNA)
RNA: B1 RNA with U34A, C37G
B6: Ic_S2_P5E.1_K5.1_C5.1_H5.1_A5.1_[T5G]_[T6C]_[A7C]_F5.1_[T8C]_[A10T]_T5.1 (ssRNA)
RNA: B1 RNA with U34C, C37U
B7: Ic_S2_P5E.1_K5.1_C5.1_H5.1_A5.1_[T6C]_F5.1_[T8A]_[A10T]_T5.1 (ssRNA)
RNA: B1 RNA with G32U, U34A, C35A, C37U
B8: Ic_S2_P5E.1_K5.1_C5.1_H5.1_A5.1_[T5C]_[A7G]_F5.1_[T8G]_[T9C]_[A10T]_T5.1 (ssRNA)
RNA: B1 RNA with G32C, C33U, U34G, C35G, U36C, C37U
B9: Ic_S2_P5E.1_K5.1_C5.1_H5.1_A5.1_[T5G]_[T6C]_[A7T]_F5.1_[A10T]_T5.1 (ssRNA)
RNA: B1 RNA with C35U, C37U
B10: Ic_S2_P5E.1_K5.1_C5.1_H5.1_A5.1_[T5G]_[T6C]_[A7C]_F5.1_[T9A]_[A10T]_T5.1 (ssRNA)
RNA: B1 RNA with U34C, C35U, U36A, C37U
B11: Ic_S2_P5E.1_K5.1_C5.1_H5.1_A5.1_[T5C]_[T6G]_[A7T]_F5.1_[T9G]_[A10T]_T5.1 (ssRNA)
RNA: B1 RNA with G32C, C33G, C35U, U36G, C37U
B12: Ic_S2_P5E.1_K5.1_C5.1_H5.1_A5.1_[T5C]_[T6A]_[A7T]_F5.1_[T8G]_T5.1 (ssRNA)
RNA: B1 RNA with G32C, C33A, C35G, C37A
B13: Ic_S2_P5E.1_K5.1_C5.1_H5.1_A5.1_[T5A]_[T6C]_[A7C]_F5.1_[T9A]_[A10T]_T5.1 (ssRNA)
RNA: B1 RNA with G32A, U34C, C35U, U36A, C37U
B14: Ic_S2_P5E.1_K5.1_C5.1_H5.1_A5.1_[T5G]_[A7C]_F5.1_[T8A]_[T9C]_[A10T]_T5.1 (ssRNA)
RNA: B1 RNA with C33U, U34C, C35A, U36C, C37U
B15: Ib_S1_P4E.1_K4.1_C4.1_H4.1_[G2A]_A4.1_F4.1_[T8A]_T4.1 (ssRNA)
RNA: UCUCUUUAUAUAUAAUCUCUU
B16: Ic_S2_P5E.1_K5.1_C5.1_H5.1_A5.1_[T5A]_[T6A]_[A7C]_F5.1_[T9G]_[A10G]_T5.1 (ssRNA)
RNA: B1 RNA with G32A, C33A, U34C, C35U, U36G, C37G
B17: Ic_S2_P5E.1_K5.1_C5.1_H5.1_A5.1_[T5A]_[T6C]_[A7T]_F5.1_[T8A]_[T9G]_[A10T]_T5.1 (ssRNA)
RNA: B1 RNA with G32A, C35A, U36G, C37U
B18: Ic_S2_P5E.1_K5.1_C5.1_H5.1_A5.1_[T5C]_[T6C]_[A7T]_F5.1_[T8C]_[T9G]_[A10C]_T5.1 (ssRNA)
RNA: B1 RNA with G32C, U36G
B19: Ic_S2_P5E.1_K5.1_C5.1_H5.1_A5.1_[T5C]_[T6G]_[A7T]_F5.1_[T8G]_[T9C]_[A10C]_T5.1 (ssRNA)
RNA: B1 RNA with G32C, C33G, C35G, U36C
B20: Ic_S2_P5E.1_K5.1_C5.1_H5.1_A5.1_[T5C]_[T6G]_[A7T]_F5.1_[T8C]_[T9G]_[A10T]_T5.1 (ssRNA)
RNA: B1 RNA with G32C, C33G, U36G, C37U
B21: Ic_S2_P5E.1_K5.1_C5.1_H5.1_A5.1_[T6G]_[A7C]_F5.1_[T8C]_[T9G]_[A10G]_T5.1 (ssRNA)
RNA: B1 RNA with G32U, C33G, U34C, U36G, C37G
B22: Ic_S2_P5E.1_K5.1_C5.1_H5.1_A5.1_[T5G]_[T6C]_F5.1_[T8C]_[T9C]_[A10G]_T5.1 (ssRNA)
RNA: B1 RNA with U34A, U36C, C37G
B23: Ic_S2_P5E.1_K5.1_C5.1_H5.1_A5.1_[T5G]_[A7T]_F5.1_[T8C]_[T9C]_[A10T]_T5.1 (ssRNA)
RNA: B1 RNA with C33U, U36C, C37U
B24: Ic_S2_P5E.1_K5.1_C5.1_H5.1_A5.1_[T5C]_F5.1_[T8C]_[T9G]_[A10C]_T5.1 (ssRNA)
RNA: B1 RNA with G32C, C33U, U34A, U36G
B25: Ic_S2_P5E.1_K5.1_C5.1_H5.1_A5.1_[T5A]_[T6C]_[A7C]_F5.1_[T9A]_[A10G]_T5.1 (ssRNA)
RNA: B1 RNA with G32A, U34C, C35U, U36A, C37G
B26: Ib_S1_P4E.1_K4.1_C4.1_H4.1_[T3C]_A4.1_F4.1_[T8A]_T4.1 (ssRNA)
RNA: UCUCUUUGCAUAUAAUCUCUU
B27: Ic_S2_P5E.1_K5.1_C5.1_H5.1_A5.1_[T5A]_[A7T]_F5.1_[T9A]_[A10G]_T5.1 (ssRNA)
RNA: B1 RNA with G32A, C33U, C35U, U36A, C37G
B28: Ic_S2_P5E.1_K5.1_C5.1_H5.1_A5.1_[A7T]_F5.1_[T9C]_[A10G]_T5.1 (ssRNA)
RNA: B1 RNA with G32U, C33U, C35U, U36C, C37G
B29: Ic_S2_P5E.1_K5.1_C5.1_H5.1_A5.1_[T6G]_[A7T]_F5.1_[T8C]_[T9C]_[A10T]_T5.1 (ssRNA)
RNA: B1 RNA with G32U, C33G, U36C, C37U

Target: T1, PUF4 RNA-binding domain
Test: Mg; RNA-MaP; 20 mM Na-HEPES pH 7.4, 30 mM KOAc, 0.75 mM MgCl2, 0.1% Tween-20, 5% glycerol, 0.1 mg/mL BSA, 2 mM DTT; 25 C; 0.0125-409.6 nM protein
Conditions: tags: N-His6-TEV cleaved; C-SNAP kept, Cy3B-labelled; label: tethered on chip by stalled RNA polymerase

Row | Binder | Kd [nM]
1 | B1 | 383
2 | B2 | 110
3 | B3 | 17.8
4 | B4 | 2120
5 | B5 | 794
6 | B6 | 254
7 | B7 | 29.9
8 | B8 | 1660
9 | B9 | 37.5
10 | B10 | 4.62
11 | B11 | 31.8
12 | B12 | 2.58
13 | B13 | 4.74
14 | B14 | 722
15 | B15 | 532
16 | B16 | 26
17 | B17 | 737
18 | B18 | 101
19 | B19 | 205
20 | B20 | 207
21 | B21 | 1340
22 | B22 | 1330
23 | B23 | 175
24 | B24 | 641
25 | B25 | 28.5
26 | B26 | > 2300
27 | B27 | 5.21
28 | B28 | 42.9
29 | B29 | 21.6
